# Data taken from patent publication US20240174764A1 (Memorial Sloan Kettering, published 2024).
# B1: EXT170-8 BiTED (MUC16^ecto-specific Bispecific T-cell engaging diabody, Clone 8 (LH)/anti-CD3 bispecific antibody) (bispecific antibody)
# chain: DIQLTQSPSAVSASVGDRVTITCRASQDVSKWLAWYQQKPGKAPRLLISAASGLQSWVPSRFSGSGSGTEFTLSISSLQPEDFATYYCQQANSFPWTFGQGTKVEIKRSRGGGGSGGGGSGGGGSLEMAQVQLQQWGAGLLKPSETLSLTCAVYGGSFSGYYWSWIRQPPGKGLEWIGEINHSGSTNYNPSLKSRVTISVDTSKNQFSLKLSSVTAADTAVYYCARQSYITDSWGQGTLVTVSSTSGGGGSDVQLVQSGAEVKKPGASVKVSCKASGYTFTRYTMHWVRQAPGQGLEWIGYINPSRGYTNYADSVKGRFTITTDKSTSTAYMELSSLRSEDTATYYCARYYDDHYCLDYWGQGTTVTVSSGEGTSTGSGGSGGSGGADDIVLTQSPATLSLSPGERATLSCRASQSVSYMNWYQQKPGKAPKRWIYDTSKVASGVPARFSGSGSGTDYSLTINSLEAEDAATYYCQQWSSNPLTFGGGTKVEIKHHHHHH
# notes: The molecule was His-tagged in SPR and biotinylated in ELISA; also called MUC16^ecto-BiTEDs; EXT170-8 BiTEDs
# Columns and labels:
# [1] = molecular target: T1, BTM protein (synthetic fusion protein of the highly conserved extracellular portion of MUC16^c57-114 fused to … (human, UniProt Q8WXI7 14394-14451)); experiment: SPR (BiaCore X100), His-tagged BiTED on NTA chip, BTM as analyte, 1:1 model
# T1 construct: domain: highly conserved extracellular portion of MUC16^c57-114; also called MUC16 BTM protein; Muc16 BTM protein; not shown: human Fc (pFUSE backbone)
# T1 sequence: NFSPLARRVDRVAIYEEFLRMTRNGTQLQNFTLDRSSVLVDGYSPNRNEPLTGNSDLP
# Method: (§1) Kinetic Analysis of BiTEDs binding to MUC16^ecto. The kinetic analysis of EXT170-8 BiTEDs and Muc16 BTM protein (55mer highly conserved ectodomain region of MUC16) was performed on a BiaCore X100 instrument loaded with an NTA sensor chip. EXT170-8 BiTED comprises the amino acid of SEQ ID NO: 89 and the leader sequence of SEQ ID NO: 93.
# (§2) The raw data was analyzed using the kinetic model 1:1 binding by Biacore X100 evaluation software.
# MUC16^ecto-BiTEDs were purified and confirmed by SDS-page (FIG. 1(c)). To determine the binding affinity of BiTEDs to MUC16^ecto, a previously validated BTM protein (a synthetic fusion protein consisting of the highly conserved extracellular portion of MUC16^c57-114 fused to a human Fc backbone pFUSE) was used, and kinetic analysis was performed using surface plasmon resonance.
# [2] = molecular target: T1, BTM protein (synthetic fusion protein …); experiment: SPR, BiaCore X100, His-tagged EXT170-8 BiTEDs immobilised on an NTA sensor chip, MUC16 BTM protein injected at 35.625 to 570 nM, 1:1 binding model [d]
# Method: as §1, §2
binder,measurement,setting,value
B1,Kd,[1],69.9 nM
same,koff,[2],0.0157 s⁻¹
same,kon,[2],224000 M⁻¹ s⁻¹
